According to article PMC11671767, “GENOMES UNCOUPLED PROTEIN1 binds to plastid RNAs and promotes their maturation”:

Assays:
[1] = biological target: T1, GUN1-PS (Arabidopsis thaliana, UniProt Q9SIC9 232-918); assay: competition; vs Cy5-trnG.1, 5-50x; 5x buffer (4 ul per reaction): 50 mM Tris-HCl pH 7.5, 50 mM NaCl, 200 mM KCl, 5 mM MgCl2, 5 mM EDTA, 5 mM DTT, 0.25 mg/ml BSA, 5% glycerol; 30 min at 23 C; 5% native PAGE, 0.5x TBE, 4 C; settings: protein: recombinant; tags: N-terminal TRX-His
T1 sequence: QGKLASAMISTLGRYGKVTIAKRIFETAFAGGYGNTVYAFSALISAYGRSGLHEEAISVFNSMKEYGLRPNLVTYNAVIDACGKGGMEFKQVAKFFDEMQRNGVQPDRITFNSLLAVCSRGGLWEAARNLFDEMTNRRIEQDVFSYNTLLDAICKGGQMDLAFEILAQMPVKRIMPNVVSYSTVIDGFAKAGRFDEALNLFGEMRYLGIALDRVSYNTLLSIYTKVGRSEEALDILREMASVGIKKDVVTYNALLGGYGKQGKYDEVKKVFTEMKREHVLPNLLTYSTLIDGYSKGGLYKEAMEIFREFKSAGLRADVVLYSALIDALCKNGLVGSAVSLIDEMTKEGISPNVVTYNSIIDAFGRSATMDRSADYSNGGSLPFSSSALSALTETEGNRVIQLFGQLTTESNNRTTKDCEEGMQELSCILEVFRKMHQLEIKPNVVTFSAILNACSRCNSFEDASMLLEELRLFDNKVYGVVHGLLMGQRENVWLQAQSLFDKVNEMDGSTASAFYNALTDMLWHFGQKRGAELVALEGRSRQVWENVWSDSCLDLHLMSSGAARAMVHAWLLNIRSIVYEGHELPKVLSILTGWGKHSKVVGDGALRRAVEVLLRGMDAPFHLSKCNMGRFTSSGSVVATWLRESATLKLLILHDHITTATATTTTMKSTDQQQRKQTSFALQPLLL

[2] = biological target: T1, GUN1-PS; assay: competition; vs Cy5-ndhG, 5-50x; 5x buffer (4 ul per reaction): 50 mM Tris-HCl pH 7.5, 50 mM NaCl, 200 mM KCl, 5 mM MgCl2, 5 mM EDTA, 5 mM DTT, 0.25 mg/ml BSA, 5% glycerol; 30 min at 23 C; 5% native PAGE, 0.5x TBE, 4 C; settings: protein: recombinant; tags: N-terminal TRX-His; hairpin loop (predicted)
[3] = biological target: T1, GUN1-PS; assay: EMSA; binding at 37 C, gel at room temperature; similar to RNA1; 5x buffer (4 ul per reaction): 50 mM Tris-HCl pH 7.5, 50 mM NaCl, 200 mM KCl, 5 mM MgCl2, 5 mM EDTA, 5 mM DTT, 0.25 mg/ml BSA, 5% glycerol; 30 min at 23 C; 5% native PAGE, 0.5x TBE, 4 C; settings: protein: recombinant; tags: N-terminal TRX-His
[4] = biological target: T1, GUN1-PS; assay: competition; vs Cy5-23S_104856, 5-50x; reduces the weak shift; 5x buffer (4 ul per reaction): 50 mM Tris-HCl pH 7.5, 50 mM NaCl, 200 mM KCl, 5 mM MgCl2, 5 mM EDTA, 5 mM DTT, 0.25 mg/ml BSA, 5% glycerol; 30 min at 23 C; 5% native PAGE, 0.5x TBE, 4 C; settings: protein: recombinant; tags: N-terminal TRX-His
[5] = biological target: T1, GUN1-PS; assay: EMSA; 100-600 nM protein; 5x buffer (4 ul per reaction): 50 mM Tris-HCl pH 7.5, 50 mM NaCl, 200 mM KCl, 5 mM MgCl2, 5 mM EDTA, 5 mM DTT, 0.25 mg/ml BSA, 5% glycerol; 30 min at 23 C; 5% native PAGE, 0.5x TBE, 4 C; settings: protein: recombinant, tags: N-terminal TRX-His
[6] = biological target: T1, GUN1-PS; assay: EMSA; binding at 37 C, gel at room temperature; no clear shift; 5x buffer (4 ul per reaction): 50 mM Tris-HCl pH 7.5, 50 mM NaCl, 200 mM KCl, 5 mM MgCl2, 5 mM EDTA, 5 mM DTT, 0.25 mg/ml BSA, 5% glycerol; 30 min at 23 C; 5% native PAGE, 0.5x TBE, 4 C; settings: protein: recombinant; tags: N-terminal TRX-His

## AUUUGGGAAUUUCUCCAUCCAUCAU (ssRNA) [trnG.1 unlabeled]
[1]
  binding result: binds

## GCAUCUGAAUUUCAUAACCAAUCUCGAU (ssRNA) [nonspecific competitor for trnG.1]
[1]
  binding result: no binding

## AGAAAAAAAUCUGUUGAUAAAUGAA (ssRNA) [ndhG_118454 unlabeled]
[2]
  binding result: binds

## GGACCGAAUGAUCUAUCUCU (ssRNA) [Kim_RNA3 (BLRP mut)]
[3]
  binding result: no binding

## AUUCUUAUGUGGCAGUCUCUAGUCCACUAGCUUUUG (ssRNA) [nonspecific competitor for 23S and ndhG]
[4]
  binding result: binds

## AUUUGGGAAUUUCUCCAUCCAUCAU (ssRNA) [trnG.1]
[5]
  binding result: binds

## AGAAAAAAAUCUGUUGAUAAAUGAA (ssRNA) [ndhG_118454]
[5]; hairpin loop (predicted)
  binding result: binds

## GGAAAUCCGUCGAUAUCUCU (ssRNA) [Kim_RNA1 (BLRP)]
[6]
  binding result: no binding
